# Non-standard residues stand in square brackets, D forms with d. No end group written: not given here. *: point of attachment. Tyr(3-F) = N[C@@H](Cc1ccc(O)c(F)c1)C(=O)O; Tyr(2-F) = N[C@@H](Cc1ccc(O)cc1F)C(=O)O; Phe(4-F) = N[C@@H](Cc1ccc(F)cc1)C(=O)O; Ala(cPr) = N[C@@H](CC1CC1)C(=O)O; tBuAla = CC(C)(C)C[C@H](N)C(=O)O; 3Pal = N[C@@H](Cc1cccnc1)C(=O)O; 4Pal = N[C@@H](Cc1ccncc1)C(=O)O; Cha = N[C@@H](CC1CCCCC1)C(=O)O; Gly(cPr) = N[C@H](C(=O)O)C1CC1; dCha = N[C@H](CC1CCCCC1)C(=O)O; Isobutyryl = CC(C)C(=O)*; Abu = CC[C@H](N)C(=O)O; Aib = CC(C)(N)C(=O)O
# B1: Isobutanoyl-[Abu26, Cha27,36, Phe(4F)28, Aib31]-PYY(25-36) (peptide)
# peptide: Isobutyryl-R[Abu][Cha][Phe(4-F)]NL[Aib]TRQR[Cha]-NH2
# SMILES: CC[C@H](NC(=O)[C@H](CCCNC(=N)N)NC(=O)C(C)C)C(=O)N[C@@H](CC1CCCCC1)C(=O)N[C@@H](Cc1ccc(F)cc1)C(=O)N[C@@H](CC(N)=O)C(=O)N[C@@H](CC(C)C)C(=O)NC(C)(C)C(=O)N[C@H](C(=O)N[C@@H](CCCNC(=N)N)C(=O)N[C@@H](CCC(N)=O)C(=O)N[C@@H](CCCNC(=N)N)C(=O)N[C@@H](CC1CCCCC1)C(N)=O)[C@@H](C)O
# B2: Isobutanoyl-[Abu26, Cha27,28, Aib31, Tyr(2F)36]-PYY(25-36) (peptide)
# peptide: Isobutyryl-R[Abu][Cha][Cha]NL[Aib]TRQR[Tyr(2-F)]-NH2
# SMILES: CC[C@H](NC(=O)[C@H](CCCNC(=N)N)NC(=O)C(C)C)C(=O)N[C@@H](CC1CCCCC1)C(=O)N[C@@H](CC1CCCCC1)C(=O)N[C@@H](CC(N)=O)C(=O)N[C@@H](CC(C)C)C(=O)NC(C)(C)C(=O)N[C@H](C(=O)N[C@@H](CCCNC(=N)N)C(=O)N[C@@H](CCC(N)=O)C(=O)N[C@@H](CCCNC(=N)N)C(=O)N[C@@H](Cc1ccc(O)cc1F)C(N)=O)[C@@H](C)O
# B3: Isobutanoyl-[Abu26, Cha27,28,36, Abu30, Aib31]-PYY(25-36) (peptide)
# peptide: Isobutyryl-R[Abu][Cha][Cha]N[Abu][Aib]TRQR[Cha]-NH2
# SMILES: CC[C@H](NC(=O)[C@H](CCCNC(=N)N)NC(=O)C(C)C)C(=O)N[C@@H](CC1CCCCC1)C(=O)N[C@@H](CC1CCCCC1)C(=O)N[C@@H](CC(N)=O)C(=O)N[C@@H](CC)C(=O)NC(C)(C)C(=O)N[C@H](C(=O)N[C@@H](CCCNC(=N)N)C(=O)N[C@@H](CCC(N)=O)C(=O)N[C@@H](CCCNC(=N)N)C(=O)N[C@@H](CC1CCCCC1)C(N)=O)[C@@H](C)O
# B4: Isobutanoyl-[Abu26, Cha27,28,36, Gly(cPr)31]-PYY(25-36) (peptide)
# peptide: Isobutyryl-R[Abu][Cha][Cha]NL[Gly(cPr)]TRQR[Cha]-NH2
# SMILES: CC[C@H](NC(=O)[C@H](CCCNC(=N)N)NC(=O)C(C)C)C(=O)N[C@@H](CC1CCCCC1)C(=O)N[C@@H](CC1CCCCC1)C(=O)N[C@@H](CC(N)=O)C(=O)N[C@@H](CC(C)C)C(=O)N[C@H](C(=O)N[C@H](C(=O)N[C@@H](CCCNC(=N)N)C(=O)N[C@@H](CCC(N)=O)C(=O)N[C@@H](CCCNC(=N)N)C(=O)N[C@@H](CC1CCCCC1)C(N)=O)[C@@H](C)O)C1CC1
# B5: Ac-[D-Cha24, Abu26, Cha27,28,36, Aib31]-PYY(24-36) (peptide)
# peptide: Ac-[dCha]R[Abu][Cha][Cha]NL[Aib]TRQR[Cha]-NH2
# SMILES: CC[C@H](NC(=O)[C@H](CCCNC(=N)N)NC(=O)[C@@H](CC1CCCCC1)NC(C)=O)C(=O)N[C@@H](CC1CCCCC1)C(=O)N[C@@H](CC1CCCCC1)C(=O)N[C@@H](CC(N)=O)C(=O)N[C@@H](CC(C)C)C(=O)NC(C)(C)C(=O)N[C@H](C(=O)N[C@@H](CCCNC(=N)N)C(=O)N[C@@H](CCC(N)=O)C(=O)N[C@@H](CCCNC(=N)N)C(=O)N[C@@H](CC1CCCCC1)C(N)=O)[C@@H](C)O
# B6: Isobutanoyl-[Abu26, Cha27,36, Gly(cPr)28, Aib31]-PYY(25-36) (peptide)
# peptide: Isobutyryl-R[Abu][Cha][Gly(cPr)]NL[Aib]TRQR[Cha]-NH2
# SMILES: CC[C@H](NC(=O)[C@H](CCCNC(=N)N)NC(=O)C(C)C)C(=O)N[C@@H](CC1CCCCC1)C(=O)N[C@H](C(=O)N[C@@H](CC(N)=O)C(=O)N[C@@H](CC(C)C)C(=O)NC(C)(C)C(=O)N[C@H](C(=O)N[C@@H](CCCNC(=N)N)C(=O)N[C@@H](CCC(N)=O)C(=O)N[C@@H](CCCNC(=N)N)C(=O)N[C@@H](CC1CCCCC1)C(N)=O)[C@@H](C)O)C1CC1
# B7: [D-Ser23, Abu26, Cha27,28,36, Aib31]-PYY(23-36) (peptide)
# peptide: [dS]LR[Abu][Cha][Cha]NL[Aib]TRQR[Cha]-NH2
# modifications: N-terminus assumed
# SMILES: CC[C@H](NC(=O)[C@H](CCCNC(=N)N)NC(=O)[C@H](CC(C)C)NC(=O)[C@H](N)CO)C(=O)N[C@@H](CC1CCCCC1)C(=O)N[C@@H](CC1CCCCC1)C(=O)N[C@@H](CC(N)=O)C(=O)N[C@@H](CC(C)C)C(=O)NC(C)(C)C(=O)N[C@H](C(=O)N[C@@H](CCCNC(=N)N)C(=O)N[C@@H](CCC(N)=O)C(=O)N[C@@H](CCCNC(=N)N)C(=O)N[C@@H](CC1CCCCC1)C(N)=O)[C@@H](C)O
# B8: Isobutanoyl-[Abu26, Cha27,28,36, Gln30, Aib31]-PYY(25-36) (peptide)
# peptide: Isobutyryl-R[Abu][Cha][Cha]NQ[Aib]TRQR[Cha]-NH2
# SMILES: CC[C@H](NC(=O)[C@H](CCCNC(=N)N)NC(=O)C(C)C)C(=O)N[C@@H](CC1CCCCC1)C(=O)N[C@@H](CC1CCCCC1)C(=O)N[C@@H](CC(N)=O)C(=O)N[C@@H](CCC(N)=O)C(=O)NC(C)(C)C(=O)N[C@H](C(=O)N[C@@H](CCCNC(=N)N)C(=O)N[C@@H](CCC(N)=O)C(=O)N[C@@H](CCCNC(=N)N)C(=O)N[C@@H](CC1CCCCC1)C(N)=O)[C@@H](C)O
# B9: Isobutanoyl-[Abu26, Cha27,28,36, Ala(cPr)30, Aib31]-PYY(25-36) (peptide)
# peptide: Isobutyryl-R[Abu][Cha][Cha]N[Ala(cPr)][Aib]TRQR[Cha]-NH2
# SMILES: CC[C@H](NC(=O)[C@H](CCCNC(=N)N)NC(=O)C(C)C)C(=O)N[C@@H](CC1CCCCC1)C(=O)N[C@@H](CC1CCCCC1)C(=O)N[C@@H](CC(N)=O)C(=O)N[C@@H](CC1CC1)C(=O)NC(C)(C)C(=O)N[C@H](C(=O)N[C@@H](CCCNC(=N)N)C(=O)N[C@@H](CCC(N)=O)C(=O)N[C@@H](CCCNC(=N)N)C(=O)N[C@@H](CC1CCCCC1)C(N)=O)[C@@H](C)O
# B10: Isobutanoyl-[Abu26, Cha27,28,36, His30, Aib31]-PYY(25-36) (peptide)
# peptide: Isobutyryl-R[Abu][Cha][Cha]NH[Aib]TRQR[Cha]-NH2
# SMILES: CC[C@H](NC(=O)[C@H](CCCNC(=N)N)NC(=O)C(C)C)C(=O)N[C@@H](CC1CCCCC1)C(=O)N[C@@H](CC1CCCCC1)C(=O)N[C@@H](CC(N)=O)C(=O)N[C@@H](Cc1c[nH]cn1)C(=O)NC(C)(C)C(=O)N[C@H](C(=O)N[C@@H](CCCNC(=N)N)C(=O)N[C@@H](CCC(N)=O)C(=O)N[C@@H](CCCNC(=N)N)C(=O)N[C@@H](CC1CCCCC1)C(N)=O)[C@@H](C)O
# B11: Isobutanoyl-[Abu26, Cha27,28, Aib31, Tyr(3F)36]-PYY(25-36) (peptide)
# peptide: Isobutyryl-R[Abu][Cha][Cha]NL[Aib]TRQR[Tyr(3-F)]-NH2
# SMILES: CC[C@H](NC(=O)[C@H](CCCNC(=N)N)NC(=O)C(C)C)C(=O)N[C@@H](CC1CCCCC1)C(=O)N[C@@H](CC1CCCCC1)C(=O)N[C@@H](CC(N)=O)C(=O)N[C@@H](CC(C)C)C(=O)NC(C)(C)C(=O)N[C@H](C(=O)N[C@@H](CCCNC(=N)N)C(=O)N[C@@H](CCC(N)=O)C(=O)N[C@@H](CCCNC(=N)N)C(=O)N[C@@H](Cc1ccc(O)c(F)c1)C(N)=O)[C@@H](C)O
# B12: Isobutanoyl-[Abu26, Cha27,28,36, Leu(Me)30, Aib31]-PYY(25-36) (peptide)
# peptide: Isobutyryl-R[Abu][Cha][Cha]N[tBuAla][Aib]TRQR[Cha]-NH2
# SMILES: CC[C@H](NC(=O)[C@H](CCCNC(=N)N)NC(=O)C(C)C)C(=O)N[C@@H](CC1CCCCC1)C(=O)N[C@@H](CC1CCCCC1)C(=O)N[C@@H](CC(N)=O)C(=O)N[C@@H](CC(C)(C)C)C(=O)NC(C)(C)C(=O)N[C@H](C(=O)N[C@@H](CCCNC(=N)N)C(=O)N[C@@H](CCC(N)=O)C(=O)N[C@@H](CCCNC(=N)N)C(=O)N[C@@H](CC1CCCCC1)C(N)=O)[C@@H](C)O
# B13: Isobutanoyl-[Abu26, Cha27,28,36, Pya(3)31]-PYY(25-36) (peptide)
# peptide: Isobutyryl-R[Abu][Cha][Cha]NL[3Pal]TRQR[Cha]-NH2
# SMILES: CC[C@H](NC(=O)[C@H](CCCNC(=N)N)NC(=O)C(C)C)C(=O)N[C@@H](CC1CCCCC1)C(=O)N[C@@H](CC1CCCCC1)C(=O)N[C@@H](CC(N)=O)C(=O)N[C@@H](CC(C)C)C(=O)N[C@@H](Cc1cccnc1)C(=O)N[C@H](C(=O)N[C@@H](CCCNC(=N)N)C(=O)N[C@@H](CCC(N)=O)C(=O)N[C@@H](CCCNC(=N)N)C(=O)N[C@@H](CC1CCCCC1)C(N)=O)[C@@H](C)O
# B14: Isobutanoyl-[Abu26, Cha27,36, Pya(4)28, Aib31]-PYY(25-36) (peptide)
# peptide: Isobutyryl-R[Abu][Cha][4Pal]NL[Aib]TRQR[Cha]-NH2
# SMILES: CC[C@H](NC(=O)[C@H](CCCNC(=N)N)NC(=O)C(C)C)C(=O)N[C@@H](CC1CCCCC1)C(=O)N[C@@H](Cc1ccncc1)C(=O)N[C@@H](CC(N)=O)C(=O)N[C@@H](CC(C)C)C(=O)NC(C)(C)C(=O)N[C@H](C(=O)N[C@@H](CCCNC(=N)N)C(=O)N[C@@H](CCC(N)=O)C(=O)N[C@@H](CCCNC(=N)N)C(=O)N[C@@H](CC1CCCCC1)C(N)=O)[C@@H](C)O
# B15: Isobutanoyl-[Abu26, Cha27,28,36, Ser30, Aib31]-PYY(25-36) (peptide)
# peptide: Isobutyryl-R[Abu][Cha][Cha]NS[Aib]TRQR[Cha]-NH2
# SMILES: CC[C@H](NC(=O)[C@H](CCCNC(=N)N)NC(=O)C(C)C)C(=O)N[C@@H](CC1CCCCC1)C(=O)N[C@@H](CC1CCCCC1)C(=O)N[C@@H](CC(N)=O)C(=O)N[C@@H](CO)C(=O)NC(C)(C)C(=O)N[C@H](C(=O)N[C@@H](CCCNC(=N)N)C(=O)N[C@@H](CCC(N)=O)C(=O)N[C@@H](CCCNC(=N)N)C(=O)N[C@@H](CC1CCCCC1)C(N)=O)[C@@H](C)O
# Biological target: human Y2 receptor (human) (UniProt P49146)
# Assay: cell-based or functional assay
# human Y2 receptor (human), sequence (P49146 whole entry): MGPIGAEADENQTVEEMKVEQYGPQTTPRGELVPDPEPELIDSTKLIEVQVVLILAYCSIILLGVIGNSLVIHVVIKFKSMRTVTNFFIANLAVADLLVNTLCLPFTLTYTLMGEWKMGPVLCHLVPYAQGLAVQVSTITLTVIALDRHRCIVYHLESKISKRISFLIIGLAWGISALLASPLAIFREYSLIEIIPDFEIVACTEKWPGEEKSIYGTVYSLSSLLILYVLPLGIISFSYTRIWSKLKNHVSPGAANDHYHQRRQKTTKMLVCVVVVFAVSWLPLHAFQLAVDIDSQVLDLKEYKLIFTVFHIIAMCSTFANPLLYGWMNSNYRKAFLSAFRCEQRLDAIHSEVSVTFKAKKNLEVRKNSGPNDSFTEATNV
row,"GBA EC50 Ratio (vs PYY(3-36)), [35S]GTPγS",Binder
1,20,B1
2,11,B2
3,21,B3
4,16,B4
5,13,B5
6,41,B6
7,11,B7
8,22,B8
9,12,B9
10,20,B10
11,20,B11
12,26,B12
13,19,B13
14,22,B14
15,28,B15

# Biological target: human Y2 receptor (human) (UniProt P49146)
# Assay: RBA: [125I]-PYY displacement, hY2R/CHO membranes
row,IC50 Ratio (vs PYY(3-36)),Binder
1,23,B1
2,19,B2
3,20,B3
4,25,B4
5,15,B5
6,52,B6
7,15,B7
8,19,B8
9,17,B9
10,22,B10
11,26,B11
12,51,B12
13,25,B13
14,26,B14
15,26,B15

# Reference: patent US20120172293A1 (Takeda / Millennium, published 2012)
